The text below walks through data of patent US20190256843A1 (AGILENT TECHNOLOGIES, published 2019).

This test has as its target T1, negative control phosphoprotein AGPADAPAGAVVGGG[S^P/S]PRGRPGPVPAPGLLA fused to N-terminal split mCherry (central residue (position 16 of SEQ ID NO:59) printed as [S^P/S]: phosphoserine with SepOTSλ, serine with tRNA^supD).
T1 construct: also called n.c; (14-3-3 experiment); negative control for the 14-3-3 experiment; not shown: N-terminal split mCherry and linker
T1 chain: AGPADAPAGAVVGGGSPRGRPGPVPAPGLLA
In words: clonal BiFC split mCherry (negative control of the 14-3-3 experiment).

B1: human 14-3-3β fused to C-terminal split mCherry (C-mCh) with C-terminal 6xHis tag (other)
chain: MTMDKSELVQKAKLAEQAERYDDMAAAMKAVTEQGHELSNEERNLLSVAYKNVVGARRSSWRVISSIEQKTERNEKKQQMGKEYREKIEAELQDICNDVLELLDKYLIPNATQPESKVFYLKMKGDYFRYLSEVASGDNKQTTVSNSQQAYQEAFEISKKEMQPTHPIRLGLALNFSVFYYEILNSPEKACSLAKTAFDEAIAELDTLNEESYKDSTLIMQLLRDNLTLWTSENQGDEGDAGEGENELGAAAGGSGGALKGEIKQRLKLKDGGHYDAEVKTTYKAKKPVQLPGAYNVNIKLDITSHNEDYTIVEQYERAEGRHSTGGMDELYKHHHHHH
notes: also called 14-3-3 isoform β
Regarding B1, the binding result is on record as “no binding”.

B2: human 14-3-3σ fused to C-terminal split mCherry (C-mCh) with C-terminal 6xHis tag (other)
chain: MERASLIQKAKLAEQAERYEDMAAFMKGAVEKGEELSCEERNLLSVAYKNVVGGQRAAWRVLSSIEQKSNEEGSEEKGPEVREYREKVETELQGVCDTVLGLLDSHLIKEAGDAESRVFYLKMKGDYYRYLAEVATGDDKKRIIDSARSAYQEAMDISKKEMPPTNPIRLGLALNFSVFHYEIANSPEEAISLAKTTFDEAMADLHTLSEDSYKDSTLIMQLLRDNLTLWTADNAGEEGGEAPQEPQSELGAAAGGSGGALKGEIKQRLKLKDGGHYDAEVKTTYKAKKPVQLPGAYNVNIKLDITSHNEDYTIVEQYERAEGRHSTGGMDELYKHHHHHH
notes: also called 14-3-3 isoform σ
In the case of B2, the binding result is “no binding”.
